These results are taken from PMC7430568.

In assay [1] the target is SARS-CoV-2 Spike* (mutant, pre-fusion stabilised Spike protein ectodomain) (SARS-CoV-2, Wuhan-Hu-1).
Assay [2] shares this target. As to the kind of experiment: SPR.

Take mNb6-tri (trivalent mNb6) (VHH): in assay [1], the IC50 came to 0.4 nM. Further, the Kd in assay [2] was under 0.001 nM.

The substance “Nb6-tri (trivalent Nb6 with two 20 amino acid linkers) (VHH)” showed an IC50 in assay [1] of 1.5 nM. This substance had a kd2 (slow phase of dissociation) in assay [2] of under 1e-06 s⁻¹.
